{"source": "patent US20040086495", "proteins": {"B1": {"name": "PP2Cβ from bovine brain (protein phosphatase type 2C beta), recombinant, expressed in E. coli (protein)", "chain": "MGAFLDKPKTEKHNAHGAGNGLRYGLSSMQGWRVEMEDAHTAVVGIPHGLEDWSFFAVYDGHAGSRVANYCSTHLLEHITNNEDFRAAGKSGSALEPSVENVKNGIRTGFLKIDEYMRNFSDLRNGMDRSGSTAVGVMISPKHIYFINCGDSRAVLYRSGQVCFSTQDHKPCNPREKERIQNAGGSVMIQRVNGSLAVSRALGDYDYKCVDGKGPTEQLVSPEPEVYEILRAEEDEFIILACDGIWDVMSNEELCEFVKSRLEVSDDLENVCNWVVDTCLHKGSRDNMSIVLVCFSNAPKVSDEAMRKDSELDKYLESRVEEIMEKSGEEGMPDLAHVMRILSAENIPNLPPGGGLAGKRHVIEAVYSRLNPHRESDGGAGDLEDPW"}}, "target": "T1, phospho-BAD (recombinant BAD as GST-fusion protein, phosphorylated in vitro with PKA and [gamma-32P]ATP), Q61337", "T1 chain": "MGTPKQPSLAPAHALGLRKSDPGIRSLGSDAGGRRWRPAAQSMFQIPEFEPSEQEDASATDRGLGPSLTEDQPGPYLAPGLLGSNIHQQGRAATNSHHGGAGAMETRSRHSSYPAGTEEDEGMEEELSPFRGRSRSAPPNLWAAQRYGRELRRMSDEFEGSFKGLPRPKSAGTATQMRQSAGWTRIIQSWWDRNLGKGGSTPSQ"}
{"protein": "B1", "values": [{"measurement": "dephosphorylation of [32P]BAD by PP2C in vitro (SDS-PAGE, autoradiography)", "value": "The dephosphorylation of phospho-BAD by PP2C is dependent as well on time and concentration."}, {"measurement": "dephosphorylation of phospho-BAD sites by PP2C", "value": "Here it could be shown, that PP2C preferably dephosphorylates P-ser^155 compared to P-ser^112 and P-ser^136."}]}
